According to patent US20050136049A1 (TRUBION PHARMACEUTICALS, published 2005):

Biological target: T1, CD137 (4-1BB) (human, UniProt Q07011 24-255)
T1 construct: whole, on cells; also called CD137 on stimulated human PBMC
Assay: flow immunocytofluorimetry, hybridoma supernatant on anti-CD3 stimulated human PBMC, FITC goat anti-mouse IgG
Text: Binding of 5B9 scFv IgG fusion protein or 5B9 murine monoclonal antibody was detected with FITC conjugated anti-human IgG or anti-mouse IgG, respectively.

T1 sequence (Q07011 24-255): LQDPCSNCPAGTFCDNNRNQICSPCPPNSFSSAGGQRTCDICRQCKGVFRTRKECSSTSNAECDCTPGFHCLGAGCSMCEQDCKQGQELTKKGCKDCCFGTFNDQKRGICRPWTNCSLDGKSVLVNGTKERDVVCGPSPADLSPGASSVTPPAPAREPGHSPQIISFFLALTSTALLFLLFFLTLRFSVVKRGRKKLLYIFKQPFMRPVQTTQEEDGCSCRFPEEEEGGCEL

- binding result: binds
B1: 5B9 monoclonal antibody (antibody, V domains shown)
VH: QVQLKQSGPGLVQSSQSLSITCTVSGFSLTTYAVHWVRQSPGKGLEWLGVIWSGGITDYNAAFISRLSITKDDSKSQVFFKMNSLQPNDTAIYYCARNGGDNYPYYYAMDYWGQGTSVTVSS
VL: DIVMTQAAFSNPVTLGTSASISCRSSKSLLHSNGITYLYWYLQKPGQSPQLLIYQMSNLASGVPDRFSSSGSGTDFTLRISRVEAEDVGVYYCAQNLELPLTFGAGTKLELKR
notes: also called 5B9 murine monoclonal antibody
